Consider one molecule from US20050158309A1.

Test [1] deals with aCII6 polyclonal antibody against GnRH-II. In words: RIA cross-reactivity with antibody aCII6 (relative to GnRH-II).
Test [2] concerns the target KLII-2 antiserum against GnRH-II. In words: RIA cross-reactivity with antiserum KLII-2 (relative to GnRH-II).

[ ]: non-standard residue; d: D form. pGlu = O=C1CC[C@@H](C(=O)O)N1

B1: Salmon GnRH (sGnRH) (peptide)
peptide: [pGlu]HWSYGWLPG-NH2
SMILES: CC(C)C[C@H](NC(=O)[C@H](Cc1c[nH]c2ccccc12)NC(=O)CNC(=O)[C@H](Cc1ccc(O)cc1)NC(=O)[C@H](CO)NC(=O)[C@H](Cc1c[nH]c2ccccc12)NC(=O)[C@H](Cc1c[nH]cn1)NC(=O)[C@@H]1CCC(=O)N1)C(=O)N1CCC[C@H]1C(=O)NCC(N)=O
On to B1, for which the figures for the cross-reactivity in test [1] and in test [2] were 0.013% and 0.003%, respectively.
